Results: the supplement of paper PMC7125110
± gives the standard error. Variants at the floor of the assay were thinned out.

B1: glmS ribozyme (parent)
chain: AUAAAAGCGCCAGAACUACAGAAAUGUAGUUGACGAGGAGGAGGUUUAUCGAAUUUUCGGCGGAUGCCUCCAAA

Columns and labels:
Settings in all cases: with glucosamine-6-phosphate
glucosamine-6-phosphate [1] = variants of: B1; experiment: self-cleavage kobs at 160 uM GlcN6P; higher = faster cleavage; RNA array
Procedure, shortened: (§1)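 kcat and KM were obtained from weighted Michaelis–Menten fits across concentrations of kobs values. Those came from one- or two-exponential decay fits to per-tile medians normalised to baseline and to non-cleaving reference variants. The variants were barcoded ribozymes transcribed in situ by E. coli RNA polymerase on sequenced MiSeq chips and tracked through a hybridised Cy3 probe at 37 °C, with 40 μM to 10 mM glucosamine-6-phosphate in HEPES/KCl/Mg(OAc)2 buffer flowed in.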

glucosamine-6-phosphate [2] = variants of: B1; experiment: self-cleavage kobs at 640 uM GlcN6P; higher = faster cleavage; RNA array
Procedure, shortened: as §1

glucosamine-6-phosphate [3] = variants of: B1; experiment: self-cleavage kobs at 2500 uM GlcN6P; higher = faster cleavage; RNA array
Procedure, shortened: as §1

glucosamine-6-phosphate [4] = variants of: B1; experiment: self-cleavage kobs at 10000 uM GlcN6P; higher = faster cleavage; RNA array
Procedure, shortened: as §1

Variant	self-cleavage kobs at 160 uM GlcN6P (glucosamine-6-phosphate [1])	self-cleavage kobs at 640 uM GlcN6P (glucosamine-6-phosphate [2])	self-cleavage kobs at 2500 uM GlcN6P (glucosamine-6-phosphate [3])	self-cleavage kobs at 10000 uM GlcN6P (glucosamine-6-phosphate [4])
C16U A64G U65A C70U	8.56e-05 ± 2.7e-05 s⁻¹	0.00104 ± 0.00025 s⁻¹	0.000964 ± 0.00024 s⁻¹	–
U30C U54G C68A	0.000132 ± 4.9e-05 s⁻¹	–	–	–
G32U G51U	< 1e-05 s⁻¹	< 1e-05 s⁻¹	–	–
A12U A15G C16U U31G C71U	0.000195 ± 6.7e-05 s⁻¹	0.000442 ± 0.00015 s⁻¹	0.000331 ± 0.0001 s⁻¹	–
U31A A52C	< 1e-05 s⁻¹	–	< 1e-05 s⁻¹	–
G13A G43C G66A	< 1e-05 s⁻¹	–	< 1e-05 s⁻¹	< 1e-05 s⁻¹
U30G C71G	6.06e-05 ± 2.9e-05 s⁻¹	9.91e-05 ± 2.4e-05 s⁻¹	0.000179 ± 4.3e-05 s⁻¹	0.000543 ± 0.00012 s⁻¹
U31C U56G G60C	< 1e-05 s⁻¹	< 1e-05 s⁻¹	–	< 1e-05 s⁻¹
U31C A52U C71G	< 1e-05 s⁻¹	–	–	–
G29U G43C U47A G63A	< 1e-05 s⁻¹	< 1e-05 s⁻¹	< 1e-05 s⁻¹	–
G32U C50A G59A	< 1e-05 s⁻¹	< 1e-05 s⁻¹	–	–
G13A U45C C50U C71G	< 1e-05 s⁻¹	< 1e-05 s⁻¹	< 1e-05 s⁻¹	–
G29A A53U C67A	7.84e-05 ± 1.8e-05 s⁻¹	0.00017 ± 4e-05 s⁻¹	0.000241 ± 7.1e-05 s⁻¹	–
G29C U56G G66C	< 1e-05 s⁻¹	< 1e-05 s⁻¹	–	–
C16G A42G G60C C70U	< 1e-05 s⁻¹	–	< 1e-05 s⁻¹	–
G29C G32C G37U U45G	< 1e-05 s⁻¹	< 1e-05 s⁻¹	< 1e-05 s⁻¹	–
G32U A42C	< 1e-05 s⁻¹	< 1e-05 s⁻¹	< 1e-05 s⁻¹	–
G13U G44U	< 1e-05 s⁻¹	–	–	–
A15C C50G	0.000107 ± 3.2e-05 s⁻¹	–	0.000205 ± 5.8e-05 s⁻¹	–
G13U G35C A64U	< 1e-05 s⁻¹	< 1e-05 s⁻¹	< 1e-05 s⁻¹	–
G13C A14C U55G G59U	< 1e-05 s⁻¹	< 1e-05 s⁻¹	–	–
C16U U65A U69A	3.44e-05 ± 1.7e-05 s⁻¹	0.000105 ± 2.4e-05 s⁻¹	4.97e-05 ± 1.7e-05 s⁻¹	2.63e-05 ± 1.2e-05 s⁻¹
G29U A39G G59U C67U	< 1e-05 s⁻¹	< 1e-05 s⁻¹	–	–
G29C A48C G62U	< 1e-05 s⁻¹	< 1e-05 s⁻¹	< 1e-05 s⁻¹	–
A14U U47C U49A	< 1e-05 s⁻¹	–	–	–
